From the DeepSol protein solubility set

Experiment: soluble on expression in E. coli; label from the status in PepcDB or PDB records

Row | Sequence | soluble on expression in E. coli
1 | MVEIKLENIVKKFGNFTALNNINLKIKDGEFMALLGPSGSGKSTLLYTIAGIYKPTSGKIYFDEKDVTELPPKDRNVGLVFQNWALYPHMTVYKNIAFPLELRKAPREEIDKKVREVAKMLHIDKLLNRYPWQLSGGQQQRVAIARALVKEPEVLLLDEPLSNLDALLRLEVRAELKRLQKELGITTVYVTHDQAEALAMADRIAVIREGEILQVGTPDEVYYKPKYKFVGGFLGNPPMNFVEAKVEDGKLVITEKSKLPIPKQYVEIVKETGITEVIIGFRPHDAEIVKGEGEGIVGEVYSFEPLGREQIVTVSVNDSIVKVFAPEGEHFSFGEKVTIKVKEELLVLFDKKTEKALEFSKL | soluble
2 | APVGPLGQVKLTVWYHSDEQKLISIIHSCRALRQNGRDLPDPYVSVLLLPDKNRSTKRKTPQKKRTLNPEFNERFEWDLPLDGTLRRKLDVSVKSNSSFMSRERELLGKVQLDLAEIDLSQGAAQWYDLMDDRDKGGS | soluble
3 | MALRDSFNKIISYFDTDEVSEVEEPAVASVKRQQDAAQPASQQQKAQSHQYHQSASRPSQQQVQSGQNRRSGEENIHSLPTRRQSHNQQPAQEKTTIALKLPRKYEDAEEIVDLLIRNECVLIDFQYMLEAQARRCLDFIDGASKVLAGNLQKVGASMYLLTPINVIVDAEEMTLAANGQDVSFNYDMKRRLEHHHHHH | not soluble
4 | MAHHHHHHMQTATAPFILRSLYKDAYISDMQIARPITELMMNTIGAQLTNKYDTHIPAIACSLYTLFSMSRVQTLGQEFCDLLPVVKAHPWQPVGPARVLLLAVLQLVEPTAVFVVARKLFPDLSTADVEEVLRKAVLCALFLFERFGTLPHRIARVRFLSLKPSRTLQDSDGAPGSYLVLGLVLLVELVVRLWRYSKERTSREAKRSTEAAVITSSDEDAEDARSGKCMLCLSNRKCPTATNCGHIFCWRCIAEWIQSNPQEAVCPFCRQHITTQSLVPLYFYVAKEPPRVGTATDAAAPPAA | soluble
5 | MGEELNRLLDVLGNETRRRILFLLTKRPYFVSELSRELGVGQKAVLEHLRILEEAGLIESRVEKIPRGRPRKYYMIKKGLRLEILLTPTLFGSEMYEAKGVRKSPEYEQAKELIKSQEPINVKMRELAEFLHELNERIREIIEEKRELEEARILIETYIENTMRRLAEENRQIIEEIFRDIEKILPPGYARSLKEKFLNINI | soluble
6 | MFPRKELLKDGSLLLIREASIWDARRIVEYLKEVTSETDFLITRPDEVYDVSTERNYIRMYRSNPGKLMIVGEINREIVSLLTFTGFGRKRTKHVGEIGISVKKRYWNIGIGTRMITSAIEWARRNGFIRIQLEVLKSNERAISLYRKLGFELEGIKRKAVRRDDGSFEDVLVMALLLD | soluble
7 | MSLQSSVASGLSLNPEQLAVMAVGSGGVVVSLSAPAETVIVIVEHLDHKEEVIVQGREIVPSMDGHFDTIQELNSRFTESAPREKIEIGNRERPFKLHVVNVGDSRAMLVTRESYAALTRDHVPDDPGELRRIQETGDEGKKDNPSPSPITAKPDVRYFYATWEDVLILHSDGLLAESDRWEEVAGAALQCMESEPRIRGVATCLVQQAYRRGSTDNITALVSTFQKPSLNEGHHHHHH | soluble
8 | MTTKPPIERIMYIELRTSLEMFRSDLVDLEALANAAKEALEQLPYIPKNPCGKGEDDDPLSGPESALRTGRLCGLVCCTATAAEGALSTCSKLIDWAYANEPEGVDDAVLADDIDGDDDDDDEGSGSNGANGGGGANGSGNGSNGSGNGGPPDGGVESAAPAGSTELAEARPSRGGIALDLPPAHAPHGAPVA | not soluble
9 | MLVFIDDGSTNIKLQWQESDGTIKQHISPNSFKREWAVSFGDKKVFNYTLNGEQYSFDPISPDAVVTTNIAWQYSDVNVVAVHHALLTSGLPVSEVDIVCTLPLTEYYDRNNQPNTENIERKKANFRKKITLNGGDTFTIKDVKVMPESIPAGYEVLQELDELDSLLIIDLGGTTLDISQVMGKLSGISKIYGDSSLGVSLVTSAVKDALSLARTKGSSYLADDIIIHRKDNNYLKQRINDENKISIVTEAMNEALRKLEQRVLNTLNEFSGYTHVMVIGGGAELICDAVKKHTQIRDERFFKTNNSQYDLVNGMYLIGN | soluble
10 | MQQALLDHLRVVTEEEQRILDGVAEVDKDLYTSGKDFTVDSAKMLSEGKLIAVRTHTRFVHFPSHRHNYIEVLYVCQGQLTNIIGGKEVVIHAGELLFLNQYTRHEILPAGEEDIAINFMILPEFFDVAYTMAGNNNVLADFLVNVLRQDEERGEYLHFKVAEVLQIQNLLENMIYSLVTGKGDQNRINQTTMGLIFLYLLESVQYAEMRLPNQYENMIIMTTLDYIEQQYKTATLTELCEKLHLPMHMLSKMIRKNTGFNFKELLQRKRLNKAVELMCETDLPISDIIAAVGYENGSYFHRVFKERYHTTPRAFRVANGKEERVRL | not soluble
11 | MTVQEISRVIDGKRVIVKKPELLIPAGNLEKLKVAIHYGADAVYLGGQEFGLRSNAGNFTLEEMAEGVEFAKKYGAKIYVTTNIFAHNENMDGLEEYLKGIEKAGVTGIIVADPLIIETCKRVAPSVEVHLSTQQSLSNWKAAQYWKEEGLHRLVLAREASYEEMKEIKEKVDIEIEAFVHGAMCIAYSGRCTLSNHMTARDSNRGGCCQSCRWDYDLVQTVSQHKDAKELPLFQEEDAHFAMSPKDLNLILSIPKMIEIGIDSLKVEGRMKSIHYVATVATVYRKVIDAYCADPDNFEFKQEWLDELDKCANRDTAPAFFEGVPGHQEQMFGNHSKKTTYDFAGLVLDYNEETGIVTIEQRNHFKPGHEVEFFGPEIENFTQTVEKIWDEDGNELDAARHPLQIVKFKVDQPVYVNNMMRKSILQ | not soluble
12 | MKIAITITVLMLSICCSSASSDICPGFLQVLEALLLGSESNYEAALKPFNPASDLQNAGTQLKRLVDTLPQETRINIVKLTEKILTSPLCEQDLRV | soluble
13 | MGSDKIHHHHHHMKTWTPDLSRSDGPRYLAIADVIEMDLKSGRLLVGDRLPPQRDLAKRLAIDFTTVARGYVEAQKRGLVATHVGRGTFVTGGPEKERRGFVSEAALDARRMSVVDFSMNMPPEPDDPDLLARMQEGLSAVATNMIPLLRYQGFGGAGMDKEAAASWLSRRGLVPSQERIFVTPGAHPALLAIFGLLAKPGEMVLSENITYPGMRSIAAQLRLNLTGLPMDADGIIPGAFAEICETAKPKALYLNPTLQNPMTLTIPEKRREEICAVARKYHVPIVEDDAYGFIPLHSPAPLAAMAPDLTWHIGGLAKCIGAGLRLAYVVVPDTKAAWPFASAMRAASVMASPLSAALATRWIEDGTADSILRFIRTEAAARQALVAEVLPAGSYQSDPISFNIWLPLTNGWTRSTFGTHMRASGIGVVASDAFTVDGVAEEAVRVCLGGPIRRETLKGALEFMGHALEGSPQMAGTFF | not soluble
14 | AEKQVTAGRHTYALPELFLVMATQNPIEQEGTYPLPEAQLDRFLLHLEVDYPDAEHELAILRINRGEAKGECSIERPSLSQQDIFTARQEVLDIHMAEAIEQYIVRLVMATRRASEYDSELDKWLAMGVSPRATIALDRCARAHAWLAGRDFVSPEDVQAMAYPVLRHRLLLSYHAQAEGVTSNQVIDKLLNLVGSA | not soluble
15 | GMMNTTQEGRQRLAERLADTVAQALEADLAKRERALLVVSGGSTPKPFFTSLAAKALPWARVDVTLADERWVTADDADSNARLVRETLLVGPAAEACFHPLTTDDDTPEAGVETVAERLESLPWPASAVILGMGGDGHTASLFPDSEQLATALETTSAAVVVHAPSVPQARITLSASRLADAGLHVLHITGNDKRRVLAEALAGDDVRQLPIRAFLSQPIATYWAP | soluble
16 | MGSDKIHHHHHHMSDQANQGDLEIRPSPLLKVINDLHSKYKSLKEGIVANYIPELAKVNPDLFSISIVTVDGQVYQVGDYQQLFTIQSISKVFAYGLALEDHGRDYVLTRVGVEPTGEAFNAIILDEQSKRPYNPMVNAGAIATTSLIKGAGATERLNRVLEMFRRYIGHDVFVDISVFTSERSTGHRNRAMAHLMLNFGMIDRNIEEALDLYFQQCAVMVNCHDLAVMAATLANRGVNPITGEQAVNSRYIKDILSVMYTCGMYNFAGEWAYKVGIPAKSGVCGGIMAVVPNLMGIAVFSPPLDIRGNSVRGVKVCEELSQQLGLHLFECMKVGNGEWGVGNCEC | not soluble
17 | MTNSNDIDETAATIDTARALLKSFGFEAQRHNVRSAVTLLALAGLKPGDHWADSTTPRLGVQKIMDWSGAYWAKPYATGSREDFRKKTLRQWVDNGFAVLNPDNLNIATNSQLNEYCLSDEAAQAIRSYGTDAFESALVDFLSKASDTVRARAEALRAAMISVDLADGDEFLLSPAGQNPLLKKMVEEFMPRFAPGAKVLYIGDTRGKHTRFEKRIFEETLGLTFDPHGRMPDLVLHDKVRKWLFLMEAVKSKGPFDEERHRTLRELFATPVAGLVFVNCFENREAMRQWLPELAWETEAWVADDPDHLIHLNGSRFLGPYER | soluble
18 | MGKKMVVALGGNAILSNDASAHAQQQALVQTSAYLVHLIKQGHRLIVSHGNGPQVGNLLLQQQAADSEKNPAMPLDTCVAMTQGSIGYWLSNALNQELNKAGIKKQVATVLTQVVVDPADEAFKNPTKPIGPFLTEAEAKEAMQAGAIFKEDAGRGWRKVVPSPKPIDIHEAETINTLIKNDIITISCGGGGIPVVGQELKGVEAVIDKDFASEKLAELVDADALVILTGVDYVCINYGKPDEKQLTNVTVAELEEYKQAGHFAPGSMLPKIEAAIQFVESQPNKQAIITSLENLGSMSGDEIVGTVVTK | soluble
19 | MQIDKLRGRELDQLFKAILSLRDLEECYRFFDDLCTVNEIQALAQRLEVARMLREGYTYHKIETETGASTATISRVKRCLNYGNDAYAMALDRIKEEQQQEEKEANEAVTD | not soluble
20 | GSDDNKTTGATYDPNQPVTVESFMPVEGKLREKVIVKGSNFGTDKSKVKVYFVDEAAERLSTVIGIDNNTLYCLAPRQLPGGNRIKVIVDGKEVTTDGTFKYEQAQNVSTISGSASKDGNDDGDLASAKFKYMWGIAAVGNNTVLAYQRDDPRVRLISVDDNKVTTVHPGFKGGKPAVTKDKQRVYSIGWEGTHTVYVYMKASGWAPTRIGQLGSTFSGKIGAVALDETEEWLYFVDSNKNFGRFNVKTQEVTLIKQLELSGSLGTNPGPYLIYYFVDSNFYMSDQNLSSVYKITPDGECEWFCGSATQKTVQDGLREEALFAQPNGMTVDEDGNFYIVDGFKGYCLRKLDILDGYVSTVAGQVDVASQIDGTPLEATFNYPYDICYDGEGGYWIAEAWGKAIRKYAVE | soluble
21 | MGSDKIHHHHHHMAIRTCFCTGVLPVTMDDLTSGYNIAEILTLEPEFLSMLGFTYKEAEVYLRYVLDTYTEGQDRFDDVWQLIVNNYDGYRFLPEAEPLFNSTILTYFFKKFAVRKGGIPSELVDENLRTDIGWIRHLTLSLENAKEMQDALVIDDELSYNVSDLSSKFNKRKFFDKSIYPVSLFYLGMTTLRSNYRMVLPNLTMRSIYMDYYNEMNHIEGNAQRYVPTYERFTEERRFEPLVQNYFEQYLGQFPAQVFDKINENFIRCSFFELCSRYLSSCYTFAIEQNNSAGRSDFEMTGIPGTDYYKDDRLAEFKYFKAKEAERMLALSDPRPEDVAQVLAYAKDTKVKFPHYHVRSYIVYICANKGWKCWEVTP | not soluble
22 | AHHHHHHGSFEISIYLPTEIVFGPGKLEMLPKLVKKHGLSGKALIVTGRRSTKETGVLYRVQELLKQAGVESIVFDKIIPNPISTHVDEGAEIARKENVSFVVGLGGGSAIDSAKAIAMTAASGGKYWDYVPAVGGGKKPTGALPIVAIPTTHGTGTEADPYAVITNPETKEKQGIGYDVLFPKFSIVDPELMLTLPKDQTVYTSMDAFYHSIEAFLNVRANPYSDVLALDSMRRIVTYLPLAYENLRNLEARTQLAWASTEAGITETVTGVVANHALEHGLSGFYPEVPHGLGLCILGPYLFEYILDYAYEKLAIVGREVFGVYEPNDRKAAELAIKKLRDFQSLFGVNKKLRELGVKEEDIPEMARTAYRMMKPVIEATPGDLKVEDLEEIYRRAY | soluble
